Results from patent publication US20250034594A1, “RNA-GUIDED GENOME RECOMBINEERING AT KILOBASE SCALE” (THE BOARD OF TRUSTEES OF THE LELAND STANFORD JUNIOR …, priority 2021, published 2025).

How the values were obtained:
Assay type in all cases: cell-based
[1] = system: gene editing with Cas9 and dCas9; test: Screen of 322 new SSAP proteins, activity across all experiments (Cas9 and dCas9, Table 5); parameters: scale not given here
Method in brief: (§1)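 Read-out is gene editing activity. Candidates come from sequence data mining, are made synthetically, and are tested alongside either nuclease-active Cas9 or catalytically dead dCas9.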

gene editing with dCas9 = test: Screen of 322 new SSAP proteins, gene editing activity with dCas9 (Table 5); parameters: dCas9 with SSAP activity: scale not given here
Method in brief: as §1

gene editing with Cas9 = test: Screen of 322 new SSAP proteins, gene editing activity with Cas9 (Table 5); parameters: Cas9 with SSAP activity: scale not given here
Method in brief: as §1

Molecule | Activity across all experiments [1] | dCas9 with SSAP activity (gene editing with dCas9) | dCas9 with SSAP activity (normalized) (gene editing with dCas9) | Cas9 with SSAP activity (gene editing with Cas9) | Cas9 with SSAP activity (normalized) (gene editing with Cas9)
SSAP_157: SEQ ID NO: 326; Pseudoflavonifractor sp. An184 (protein, listed as Pseudoflavonifractor sp.) ATEKAIQRATGRAPALENRPALQQYIKQMSGEIKKALPSVMTPERFTRIVLSALSTNPKLAETTPQSFLGAMMTAAQLGLEPNTPLGQAYLLPYWNSKANAYECQFQLGYKGLLDLAYRSGEISVIQAHVVYSEDQFSYSFGLKPELKHIPAGEERGEPVYVYAIFHTKDGGYGFEVCSIDDIRAHAQRYSKSFQNGPWQTNFEEMAKKTVLKRVLKYAPLKSEFLRGLAQDETIKQEISEDMYMVEAAYAEPDVSSAEND | −4.633 | −5.734 | −0.898 | −3.533 | −1.181
SSAP_217: SEQ ID NO: 386; Streptomyces noursei (protein, listed as Streptomyces noursei) TSPIRAAVARRAGDPAALISQYTADFAAVLPSHIKPATFVRLAQGILRRDEKLAQAAANDPGQFMSVLLDAARLGLEPGTEAYYLVPFKGRVQGIVGWQGEIELMYRAGAISSVIVETVREDDVFVWTPGLVDRETPPRWEGPMSYPFHEVEWAGDRGPLRLVYAYAVMKGGATSKVVVLNAQDIERAKKTSQGADSPSSPWRQHEAAMWSKTAVHRLAKYVPTSAEYITAQVRAVRQADALSAPPVEEVVDVELVGDGQEQEARR | −3.758 | −5.577 | −0.839 | −1.938 | −1.023
SSAP_115: SEQ ID NO: 284; Lacrimispora amygdalina (protein, listed as Lacrimispora amygdalina) AVDVKNELERKASGQNSQVKLTKSMTIADMVKALEPEIKRALPAVLTPERFTRMALSAINNTPELAGCTPMSFIAAMMNAAQLGLEPNTPLGQAYLIPYKNKGVLECQFQIGYKGMIDLAYRTGQIQVIQGQAVREFDYFEYQYGLDPKLVHRPGEEERGEITFIYGLFRLSNGGYGFEVSNKADMDAFAAKYSKSFGSKYSPWTENYEDMAKKTVIKRALKYAPVSVDFQKAMSMDETIKTEISVDMSEIRNECPEISENGEAA | −4.992 | −5.725 | −1.307 | −4.259 | −0.733
SSAP_182: SEQ ID NO: 351; Lacrimispora sphenoides (protein, Lacrimispora sphenoides) ADVKQELEKRAAGSGGQSVKLTKNMTIVDMVKALEPEIKRALPCILTPERFSRMALSAINNTPKLGECTPMSFIAALMNAAQLGLEPNTPLGQAYLIPYKNKGVLECQFQLGYRGLIDLAYRNERMQSIEAQVVYDNDEFSYELGLHPSLIHRPTFDEPGEIQAFYAIFRLDNGGFRFEVMSKNYVDSLCHALFKSIYFRFQSLEK | −3.606 | −5.663 | −0.742 | −1.549 | −1.689
SSAP_9: SEQ ID NO: 178; Bet Gammaproteobacteria (protein, Gammaproteobacteria, Bet Gammaproteobacteria) EKPKLIQRFAERFSVDPNKLFDTLKATAFKQRDGSAPTNEQMMALLVVADQYGLNPFTKEIFAFPDKQAGIIPVVGVDGWSRIINQHDQFDGMEFKTSENKVSLDGAKECPEWMECIIYRRDRSHPVKITEYLDEVYRPPFEGNGKNGPYRVDGPWQTHTKRMLRHKSMIQCSRIAFGFVGIFDQDEAERIIEGQATHVVEPSVIPPEQVDDRTRGLVYKLIERAEASNAWNSALEYANEHFQGVELTFAKQEIFNAQQQAAKALTQPLAS | −3.138 | −5.773 | −1.126 | −0.503 | −1.380
SSAP_89: SEQ ID NO: 258; Pantoea brenneri (protein, listed as Pantoea brenneri) SNQPPIASADLQKTQQSKQVANKTPEQTLVGFMNQPAMKSQLAAALPRHMTADRMIRIVTTEIRKTPQLAQCDQSSFIGAVVQCSQLGLEPGSALGHAYLLPFGNGRSKSGQSNVQLIIGYRGMIDLARRSGQIVSLSARVVRADDEFSFEYGLDENLVHRPGENEDAPITHVYAVARLKDGGTQFEVMTVKQVEKVKAQSKASSNGPWVTHWEEMAKKTVIRRLFKYLPVSIEMQKAVVLDEKAESDVDQDNASVLSAEYSVLESGDEATN | 0.393 | 0.225 | 0.240 | 0.562 | 0.533
SSAP_189: SEQ ID NO: 358; Asaia sp. W19 (protein, listed as Asaia sp.) SNALATPTEKLRTQITSMTGEFRNALPSHIKPEKFQRVVMTVVQQNQGLMNADRKSLLASCLKCAADGLIPDGREAALVMFGQQVQYMPMLAGIQKRIRNSGEIASIQAHVIYENDHFIWHQGIDASIEHRPLFPGDRGKAIGAYAVAKFKDGSDPQFEVMDVAAIEKVRAVSRAGKSGPWVQWWDEMARKTVFRRLSKWLPMDTEAEDLMRRDDENDAQDVAAPTIRVEAEAPSKLDALEHDDDGVVLEETRELEGSAA | −3.046 | −5.652 | −0.952 | −0.440 | −2.025
SSAP_13: SEQ ID NO: 182 (protein) ANELGIFSVDNLNMTTIKQYLDGGGKASDAELVLLINLCKQNNMNPFMKEVYFIKYGNQPAQIVVSRDFYRKRAFQNPNFVGIEVGVIVLNKDGVLEHNEGTFKTHEQELVGAWARVHLKNTEIPVYVAVSYDEYVQMKDGHPNKMWTNKPCTMLGKVAESQALRMAFPAEFSGTYGEEEFPEPEKEPREVNGVKEPDRAQIESFDKEDYAAKKIEELKEKAQPQKEVVEETGEVIDEEPLEGF | −3.004 | −5.545 | −0.758 | −0.463 | −0.403
SSAP_174: SEQ ID NO: 343; Hespellia stercorisuis (protein, listed as Hespellia stercorisuis) ADIKEELAKKVAEGTEDKKKLTKSMSIADLIKAMEPEIKKALPEVITPERFTRMALSALNTTPKLKECTQTSFLTALMNAAQLGLEPNTPLGQAYLIPYKNKGNLECQFQIGYKGLIDLSYRNRQMQIIQAQAVYENDEFEYELGLNPVLVHRPALQNRGAVKLFYGIFKLTNGGFGFEVMSKADMDAYAKEYSKAFDSSFSPWKSNYIGMAKKTVIKQAIKYAPLKTDFRKALSTDETIKTEFCEDMSEVQCKDIWDTEYKERSA | −4.727 | −5.563 | −1.144 | −3.891 | −0.617
